Data as given in PMC9481538, “The interaction between LC8 and LCA5 reveals a novel oligomerization function of LC8 in the ciliary-centrosome system” (Scientific Reports, 2022).
Substitutions are numbered along the chain they refer to. Where no end group is shown, it is not given here. The star is where a group is joined. FITC = O=C1OC2(c3ccc(O)cc3Oc3cc(O)ccc32)c2ccc(NC(=S)*)cc21

B1: FITC-labelled BMF (Bcl-2-modifying factor) peptide (TSQEDKATQTL) (peptide)
peptide: {FITC}-TSQEDKATQTL
notes: also called BMF peptide; fluorescein labeled BMF peptide
B2: sLCA5-ΔVQT (domain or fragment, human (cDNA library from HEK293), UniProt Q86VQ0 96-430, looked up)
chain: DTDLVTKRILSARLLKINELQNEVSELQVKLAELLKENKSLKRLQYRQEKALNKFEDAENEISQLIFRHNNEITALKERLRKSQEKERATEKRVKDTESELFRTKFSLQKLKEISEARHLPERDDLAKKLVSAELKLDDTERRIKELSKNLELSTNSFQRQLLAERKRAYEAHDENKVLQKEVQRLYHKLKEKERELDIKNIYSNRLPKSSPNKEKELALRKNAACQSDFADLCTKGAAAMEDFKPEEYPLTPETIMCYENKWEEPGHLTLDLQSQKQDRHGEAGILNPIMEREEKFVTDEELHVVKQEVEKLEDEWEREELDKKQKEKASLLER
notes: position 333 worked out from the printed motif limits; Made by quick-change mutagenesis from sLCA5-WT; also called ΔVQT mutant; source: E. coli BL21 (DE3) Rosetta, purified (amylose resin, IMAC); clarified lysate for the pull-down; not shown: MBP, N-terminal, kept; His6, C-terminal, kept
B3: sLCA5-ΔCQS (domain or fragment, human (cDNA library from HEK293), UniProt Q86VQ0 96-430, looked up)
chain: B2 chain with C226A, Q227A, S228A, A238V, A239Q, A240T
notes: position 321 worked out from the printed motif limits; Made by quick-change mutagenesis from sLCA5-WT; also called ΔCQS mutant; source: E. coli BL21 (DE3) Rosetta, purified (amylose resin, IMAC); clarified lysate for the pull-down; not shown: MBP, N-terminal, kept; His6, C-terminal, kept
B4: sLCA5-WT (LCA5 96-430 with N-terminal MBP and C-terminal 6xHis) (domain or fragment, human (cDNA library from HEK293), UniProt Q86VQ0 96-430, looked up)
chain: B2 chain with A238V, A239Q, A240T
notes: Monomer of the construct 84 kDa; also called wild-type LCA5 fragment; source: E. coli BL21 (DE3) Rosetta, purified (amylose resin, IMAC); clarified lysate for the pull-down; not shown: MBP, N-terminal, kept; His6, C-terminal, kept

Columns and labels:
[1] = molecular target: T1, Dynein light chain LC8 (DYNLL2), 6xHis-tagged (UniProt Q96FJ2 1-89); test: fluorescence polarisation; competitive: 50 nM FITC-BMF peptide with LC8 at 80% saturation (12 μM), titrated with LCA5 peptide from 500 μM in two-fold dilutions; 25 °C, PBS, 2 mM TCEP, 0.05% Brij; triplicates; settings: both partners purified
T1 construct: Dynein light chain LC8 (DYNLL2), an 89-residue protein; pEV vector with N-terminal 6xHis-tag; The calculated dimer mass of 20.7 kDa fits the untagged protein, so the His tag may have been removed; source: E. coli BL21 (DE3) Rosetta, purified (Ni IMAC, anion exchange on HiTrap Q-HP, SEC on Superdex 75)
T1 sequence (Q96FJ2 whole entry, looked up): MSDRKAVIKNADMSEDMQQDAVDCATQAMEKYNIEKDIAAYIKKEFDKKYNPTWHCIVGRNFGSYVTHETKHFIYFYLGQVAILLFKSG

[2] = molecular target: T1, Dynein light chain LC8 (DYNLL2), …; test: ITC; MBP-fused LCA5 construct in the cell, LC8 injected, 37 injections of 1 μl; 37 °C, PBS pH 7.4, 1 mM TCEP; settings: both partners purified
[3] = molecular target: the molecule itself; test: SEC; Superose 6 Increase 10/300, DPBS with 200 μM TCEP; LC8 or sLCA5-WT alone; masses estimated from a calibration curve

Binder | binding result [1] | Kd [2] [nM] | stoichiometry N [3]
B1 | binds | – | –
B2 | – | 1220 ± 80 | –
B3 | – | 680 ± 80 | –
B4 | – | 760 ± 60 | ~4
